Measured values: patent EP1746107B1
Like-named read-outs stand apart in the source and are kept apart here. Values belong to the substance of their own block, whether it stands above or below them.

Tests used:
[1] = molecular target: FcγRIIa α subunit ECD-6His-GST fusion protein (UniProt P12318); assay: ELISA on coated receptor ECD-6His-GST, E27:chimeric IgE:VEGF immune complex
[2] = molecular target: FcγRIIb α subunit ECD-6His-GST fusion protein (UniProt P31994); assay: as above
[3] = molecular target: human C1q (Quidel, San Diego, CA) (human) (UniProt P02745); assay: C1q binding ELISA (antibody coated, 2 µg/ml C1q added)
Sequence of human C1q (Quidel, San Diego, CA) (human) (P02745 23-245 limits assumed, chain 1 of 3): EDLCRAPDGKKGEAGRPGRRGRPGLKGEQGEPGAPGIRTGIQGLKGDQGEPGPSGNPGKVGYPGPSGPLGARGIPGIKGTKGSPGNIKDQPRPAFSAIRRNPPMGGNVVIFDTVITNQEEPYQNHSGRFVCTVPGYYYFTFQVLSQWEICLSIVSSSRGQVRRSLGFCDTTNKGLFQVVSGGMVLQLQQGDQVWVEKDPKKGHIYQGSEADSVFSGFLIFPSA
Sequence of human C1q (Quidel, San Diego, CA) (human) (P02746 28-253 limits assumed, chain 2 of 3, further chain): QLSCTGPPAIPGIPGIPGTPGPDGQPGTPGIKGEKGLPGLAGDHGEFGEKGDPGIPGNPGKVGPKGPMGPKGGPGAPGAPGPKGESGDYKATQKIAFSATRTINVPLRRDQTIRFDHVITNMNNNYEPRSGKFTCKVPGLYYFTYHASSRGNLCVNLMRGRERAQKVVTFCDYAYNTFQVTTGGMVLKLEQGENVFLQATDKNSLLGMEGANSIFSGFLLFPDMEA
Sequence of human C1q (Quidel, San Diego, CA) (human) (P02747 29-245 limits assumed, chain 3 of 3, further chain): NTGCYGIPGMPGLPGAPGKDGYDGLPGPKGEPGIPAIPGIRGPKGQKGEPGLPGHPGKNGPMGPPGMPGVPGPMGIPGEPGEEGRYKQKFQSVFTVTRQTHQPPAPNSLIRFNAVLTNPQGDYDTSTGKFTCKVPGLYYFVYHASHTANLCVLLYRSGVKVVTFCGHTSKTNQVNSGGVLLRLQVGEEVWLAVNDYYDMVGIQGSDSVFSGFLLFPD

[4] = molecular target: human C1q (Quidel, San Diego, CA) (human) (UniProt P02745); assay: as above; remark: listed apart in the source
[5] = molecular target: human C1q (Quidel, San Diego, CA) (human) (UniProt P02745); assay: cell-based or functional assay
[6] = molecular target: FcγRIIIa α subunit ECD-6His-GST fusion protein (UniProt P08637); assay: ELISA on coated receptor ECD-6His-GST, E27:chimeric IgE:VEGF immune complex
Sequence of FcγRIIIa α subunit ECD-6His-GST fusion protein (P08637 17-208): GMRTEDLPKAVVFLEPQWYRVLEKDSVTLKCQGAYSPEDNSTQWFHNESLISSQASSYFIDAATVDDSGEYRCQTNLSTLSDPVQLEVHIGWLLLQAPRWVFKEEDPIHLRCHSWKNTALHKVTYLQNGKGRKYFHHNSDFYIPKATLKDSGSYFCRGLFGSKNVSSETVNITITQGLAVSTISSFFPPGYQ

[7] = molecular target: FcγRI α subunit-GST fusion (UniProt P12314); assay: ELISA on coated FcγRI α subunit-GST, monomeric IgG at 10 µg/ml
Sequence of FcγRI α subunit-GST fusion (P12314 16-292): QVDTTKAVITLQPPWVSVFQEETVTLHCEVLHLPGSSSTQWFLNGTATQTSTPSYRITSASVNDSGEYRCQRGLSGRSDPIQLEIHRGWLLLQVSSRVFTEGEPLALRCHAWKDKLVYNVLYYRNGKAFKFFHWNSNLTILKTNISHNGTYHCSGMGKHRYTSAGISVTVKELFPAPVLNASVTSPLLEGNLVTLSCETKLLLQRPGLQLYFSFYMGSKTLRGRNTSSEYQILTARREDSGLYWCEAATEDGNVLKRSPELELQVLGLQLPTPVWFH

[8] = molecular target: CD20 antigen on WIL2-S cells (UniProt P11836); assay: flow cytometry on WIL2-S cells expressing CD20
Sequence of CD20 antigen on WIL2-S cells (P11836 whole entry): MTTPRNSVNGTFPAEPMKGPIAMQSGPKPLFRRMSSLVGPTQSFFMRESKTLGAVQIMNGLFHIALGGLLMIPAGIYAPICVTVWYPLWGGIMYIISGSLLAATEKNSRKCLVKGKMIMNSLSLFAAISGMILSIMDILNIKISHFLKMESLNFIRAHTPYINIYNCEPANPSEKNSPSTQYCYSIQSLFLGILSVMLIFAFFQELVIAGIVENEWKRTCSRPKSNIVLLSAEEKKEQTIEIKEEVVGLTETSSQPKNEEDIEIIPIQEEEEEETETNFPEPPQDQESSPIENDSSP

[9] = molecular target: human C1q (Quidel, San Diego, CA) (human) (UniProt P02745); assay: C1q binding ELISA (antibody coated up to 100 µg/ml, 2 µg/ml C1q added)

Sequence of FcγRIIa α subunit ECD-6His-GST fusion protein (P12318 34-217): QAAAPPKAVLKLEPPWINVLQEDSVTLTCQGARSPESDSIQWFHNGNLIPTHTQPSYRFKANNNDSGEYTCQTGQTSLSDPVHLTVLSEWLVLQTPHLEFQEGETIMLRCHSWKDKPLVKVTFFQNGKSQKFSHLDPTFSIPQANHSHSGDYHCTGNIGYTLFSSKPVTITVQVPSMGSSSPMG
Sequence of FcγRIIb α subunit ECD-6His-GST fusion protein (P31994 43-217): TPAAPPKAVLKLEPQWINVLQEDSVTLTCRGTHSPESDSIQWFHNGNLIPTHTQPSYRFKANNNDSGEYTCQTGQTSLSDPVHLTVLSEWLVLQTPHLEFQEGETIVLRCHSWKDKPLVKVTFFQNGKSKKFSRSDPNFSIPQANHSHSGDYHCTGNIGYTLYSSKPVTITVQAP

Substance: C2B8 mutant K326E (antibody)
fold increase in binding to C1q compared to wild type [4]: 2 fold
EC50 [3]: 1.08 µg/mL

Substance: C2B8 mutant E333A (antibody)
EC50 [3]: 0.98 µg/mL
increase in binding to C1q [3]: 30%

Substance: C2B8 mutant E333D (antibody)
EC50 [3]: 1.22 µg/mL

Substance: C2B8 double mutant K326M-E333S (antibody)
CDC compared to wild type C2B8 [5]: 2 fold
fold better at binding human C1q than wild type C2B8 [3]: 3 fold

Substance: E27 anti-IgE antibody mutant P329A
binding, percentage of the wild type (% of wild type) [6]: 85
binding, percentage of the wild type (% of wild type) [7]: 104

Substance: C2B8 mutant E333G (antibody)
EC50 [3]: 1.14 µg/mL

Substance: C2B8 mutant K320A (antibody)
CDC (% of wild type) [5]: 108
CD20 binding (EC50), percentage of the wild type (% of wild type) [8]: 102

Substance: C2B8 mutant E333S (antibody)
EC50 [3]: 0.81 µg/mL
fold increase in binding to C1q compared to wild type [3]: 2 fold

Substance: C2B8 mutant with A327 of the human IgG1 constant region changed to glycine (antibody)
increase in C1q binding [3]: 50%

Substance: C2B8 mutant K326V (antibody)
EC50 [3]: 1.3 µg/mL

Substance: C2B8 mutant K326G (antibody)
EC50 [3]: 0.95 µg/mL

Substance: C2B8 double mutant K326A-E333A (antibody)
CDC compared to wild type C2B8 [5]: 2 fold
fold better at binding human C1q than wild type C2B8 [3]: 3 fold

Substance: E27 anti-IgE antibody mutant P331A
binding, percentage of the wild type (% of wild type) [1]: 86
binding, percentage of the wild type (% of wild type) [2]: 58
binding, percentage of the wild type (% of wild type) [6]: 73
binding, percentage of the wild type (% of wild type) [7]: 74

Substance: C2B8 mutant E333Q (antibody)
EC50 [3]: 1.52 µg/mL

Substance: C2B8 mutant P331A (antibody)
fold lower than wild type C2B8 in binding to C1q [9]: 60 fold
CD20 binding (EC50), percentage of the wild type (% of wild type) [8]: 103

Results, then the substance that gave them:

binding, percentage of the wild type (% of wild type) [1]: 109
binding, percentage of the wild type (% of wild type) [2]: 101
Substance: E27 anti-IgE antibody mutant K322A

EC50 [3]: 1.03 µg/mL
increase in binding to C1q [3]: 30%
Substance: C2B8 mutant K326A (antibody)

fold increase in binding to C1q compared to wild type [4]: 2 fold
EC50 [3]: 0.67 µg/mL
Substance: C2B8 mutant K326M (antibody)

CDC compared to wild type C2B8 [5]: 3 fold
Substance: C2B8 double mutant K326W-E333S (antibody)

fold increase in binding to C1q compared to wild type [4]: 2 fold
EC50 [3]: 0.76 µg/mL
Substance: C2B8 mutant K326D (antibody)

binding, percentage of the wild type (% of wild type) [1]: 113
binding, percentage of the wild type (% of wild type) [2]: 106
binding, percentage of the wild type (% of wild type) [6]: 104
binding, percentage of the wild type (% of wild type) [7]: 93
Substance: E27 anti-IgE antibody mutant E318A

EC50 [3]: 1.07 µg/mL
Substance: C2B8 mutant K334A (antibody)

CD20 binding (EC50), percentage of the wild type (% of wild type) [8]: 112
Substance: C2B8 mutant P329A (antibody)

EC50 [3]: 1.18 µg/mL
Substance: C2B8 mutant E333V (antibody)

CDC (% of wild type) [5]: 108
decrease in binding to C1q compared to wild type C2B8 [3]: 30%
CD20 binding (EC50), percentage of the wild type (% of wild type) [8]: 89
Substance: C2B8 mutant E318A (antibody)

binding, percentage of the wild type (% of wild type) [2]: 83
binding, percentage of the wild type (% of wild type) [6]: 72
binding, percentage of the wild type (% of wild type) [7]: 102
Substance: E27 anti-IgE antibody mutant K320A

fold increase in binding to C1q compared to wild type [4]: 2 fold
EC50 [3]: 0.47 µg/mL
fold increase in binding to C1q compared to wild type [3]: 5 fold
Substance: C2B8 mutant K326W (antibody)
